# Measured values from patent US20240287154A1, “MC3R AGONIST PEPTIDES” (The Regents of the University of Michigan, priority 2021, published 2024).
# Non-standard residues stand in square brackets, D forms with d. d(αMeW) = C[C@@](N)(Cc1c[nH]c2ccccc12)C(=O)O; Phe(4-F) = N[C@@H](Cc1ccc(F)cc1)C(=O)O; Phe(4-I) = N[C@@H](Cc1ccc(I)cc1)C(=O)O; 2Nal = N[C@@H](Cc1ccc2ccccc2c1)C(=O)O; d2Nal = N[C@H](Cc1ccc2ccccc2c1)C(=O)O; NMeH = CN[C@@H](Cc1c[nH]cn1)C(=O)O; dTic = O=C(O)[C@H]1Cc2ccccc2CN1; NMeK = CN[C@@H](CCCCN)C(=O)O; NMeA = CN[C@@H](C)C(=O)O; Nle = CCCC[C@H](N)C(=O)O; dAbu = CC[C@@H](N)C(=O)O; Aib = CC(C)(N)C(=O)O
# Molecular target: human MC3R (human, UniProt P41968 1-323)
# Sequence (P41968 whole entry): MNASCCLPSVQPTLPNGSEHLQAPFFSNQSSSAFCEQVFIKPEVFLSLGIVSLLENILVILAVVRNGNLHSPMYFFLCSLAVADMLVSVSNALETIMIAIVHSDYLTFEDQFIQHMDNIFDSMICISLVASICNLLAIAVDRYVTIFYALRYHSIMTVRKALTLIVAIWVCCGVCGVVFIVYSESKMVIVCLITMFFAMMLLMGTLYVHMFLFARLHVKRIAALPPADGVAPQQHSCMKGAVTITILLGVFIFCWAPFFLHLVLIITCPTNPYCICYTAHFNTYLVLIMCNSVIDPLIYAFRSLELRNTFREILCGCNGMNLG
# Test: cell-based or functional assay
Binder,MC3R cAMP (EC50) [nM],MC3R selectivity (relative to MC4R)
Ac-[Nle][dA]H[Phe(4-I)]R[dF]DRFG-OH (SMILES CCCC[C@H](NC(C)=O)C(=O)N[C@H](C)C(=O)N[C@@H](Cc1c[nH]cn1)C(=O)N[C@@H](Cc1ccc(I)cc1)C(=O)N[C@@H](CCCNC(=N)N)C(=O)N[C@H](Cc1ccccc1)C(=O)N[C@@H](CC(=O)O)C(=O)N[C@@H](CCCNC(=N)N)C(=O)N[C@@H](Cc1ccccc1)C(=O)NCC(=O)O) [CTX-1503],124,214
Ac-[Nle][dA]R[Phe(4-I)]R[dW]DRFG-OH (SMILES CCCC[C@H](NC(C)=O)C(=O)N[C@H](C)C(=O)N[C@@H](CCCNC(=N)N)C(=O)N[C@@H](Cc1ccc(I)cc1)C(=O)N[C@@H](CCCNC(=N)N)C(=O)N[C@H](Cc1c[nH]c2ccccc12)C(=O)N[C@@H](CC(=O)O)C(=O)N[C@@H](CCCNC(=N)N)C(=O)N[C@@H](Cc1ccccc1)C(=O)NCC(=O)O) [CTX-1197],13.5,250
Ac-[Nle][dA][NMeK]FR[dW]DRFG-OH (SMILES CCCC[C@H](NC(C)=O)C(=O)N[C@H](C)C(=O)N(C)[C@@H](CCCCN)C(=O)N[C@@H](Cc1ccccc1)C(=O)N[C@@H](CCCNC(=N)N)C(=O)N[C@H](Cc1c[nH]c2ccccc12)C(=O)N[C@@H](CC(=O)O)C(=O)N[C@@H](CCCNC(=N)N)C(=O)N[C@@H](Cc1ccccc1)C(=O)NCC(=O)O) [CTX-1189],3540,1
Ac-[Nle][dA]HFK[dW]DRFG-OH (SMILES CCCC[C@H](NC(C)=O)C(=O)N[C@H](C)C(=O)N[C@@H](Cc1c[nH]cn1)C(=O)N[C@@H](Cc1ccccc1)C(=O)N[C@@H](CCCCN)C(=O)N[C@H](Cc1c[nH]c2ccccc12)C(=O)N[C@@H](CC(=O)O)C(=O)N[C@@H](CCCNC(=N)N)C(=O)N[C@@H](Cc1ccccc1)C(=O)NCC(=O)O) [CTX-1523],41.7,5320
Ac-YVE[Aib]H[Phe(4-I)]R[dW]DRFG-OH (SMILES CC(=O)N[C@@H](Cc1ccc(O)cc1)C(=O)N[C@H](C(=O)N[C@@H](CCC(=O)O)C(=O)NC(C)(C)C(=O)N[C@@H](Cc1c[nH]cn1)C(=O)N[C@@H](Cc1ccc(I)cc1)C(=O)N[C@@H](CCCNC(=N)N)C(=O)N[C@H](Cc1c[nH]c2ccccc12)C(=O)N[C@@H](CC(=O)O)C(=O)N[C@@H](CCCNC(=N)N)C(=O)N[C@@H](Cc1ccccc1)C(=O)NCC(=O)O)C(C)C) [CTX-1195],184,51
Ac-[Nle][dA]H[2Nal]R[dW]DRFG-OH (SMILES CCCC[C@H](NC(C)=O)C(=O)N[C@H](C)C(=O)N[C@@H](Cc1c[nH]cn1)C(=O)N[C@@H](Cc1ccc2ccccc2c1)C(=O)N[C@@H](CCCNC(=N)N)C(=O)N[C@H](Cc1c[nH]c2ccccc12)C(=O)N[C@@H](CC(=O)O)C(=O)N[C@@H](CCCNC(=N)N)C(=O)N[C@@H](Cc1ccccc1)C(=O)NCC(=O)O) [CTX-1512],13.1,804
Ac-[Nle][dA]H[Phe(4-F)]R[dW]DRFG-OH (SMILES CCCC[C@H](NC(C)=O)C(=O)N[C@H](C)C(=O)N[C@@H](Cc1c[nH]cn1)C(=O)N[C@@H](Cc1ccc(F)cc1)C(=O)N[C@@H](CCCNC(=N)N)C(=O)N[C@H](Cc1c[nH]c2ccccc12)C(=O)N[C@@H](CC(=O)O)C(=O)N[C@@H](CCCNC(=N)N)C(=O)N[C@@H](Cc1ccccc1)C(=O)NCC(=O)O) [CTX-1518],1.9,1560
H-YV[Nle]AHFR[dW]D-NH2 (SMILES CCCC[C@H](NC(=O)[C@@H](NC(=O)[C@@H](N)Cc1ccc(O)cc1)C(C)C)C(=O)N[C@@H](C)C(=O)N[C@@H](Cc1c[nH]cn1)C(=O)N[C@@H](Cc1ccccc1)C(=O)N[C@@H](CCCNC(=N)N)C(=O)N[C@H](Cc1c[nH]c2ccccc12)C(=O)N[C@@H](CC(=O)O)C(N)=O) [CTX-1129],1.2,7.5
Ac-[Nle][dAbu]H[Phe(4-I)]R[dW]DRFG-OH (SMILES CCCC[C@H](NC(C)=O)C(=O)N[C@H](CC)C(=O)N[C@@H](Cc1c[nH]cn1)C(=O)N[C@@H](Cc1ccc(I)cc1)C(=O)N[C@@H](CCCNC(=N)N)C(=O)N[C@H](Cc1c[nH]c2ccccc12)C(=O)N[C@@H](CC(=O)O)C(=O)N[C@@H](CCCNC(=N)N)C(=O)N[C@@H](Cc1ccccc1)C(=O)NCC(=O)O) [CTX-1191],3.9,470
Ac-[Nle][dA]H[Phe(4-I)][dR]WDRFG-OH (SMILES CCCC[C@H](NC(C)=O)C(=O)N[C@H](C)C(=O)N[C@@H](Cc1c[nH]cn1)C(=O)N[C@@H](Cc1ccc(I)cc1)C(=O)N[C@H](CCCNC(=N)N)C(=O)N[C@@H](Cc1c[nH]c2ccccc12)C(=O)N[C@@H](CC(=O)O)C(=O)N[C@@H](CCCNC(=N)N)C(=O)N[C@@H](Cc1ccccc1)C(=O)NCC(=O)O) [CTX-1501],2800,0.01
Ac-YVE[dAbu]H[Phe(4-I)]R[dW]DRFG-OH (SMILES CC[C@@H](NC(=O)[C@H](CCC(=O)O)NC(=O)[C@@H](NC(=O)[C@H](Cc1ccc(O)cc1)NC(C)=O)C(C)C)C(=O)N[C@@H](Cc1c[nH]cn1)C(=O)N[C@@H](Cc1ccc(I)cc1)C(=O)N[C@@H](CCCNC(=N)N)C(=O)N[C@H](Cc1c[nH]c2ccccc12)C(=O)N[C@@H](CC(=O)O)C(=O)N[C@@H](CCCNC(=N)N)C(=O)N[C@@H](Cc1ccccc1)C(=O)NCC(=O)O) [CTX-1194],34.3,49
Ac-[Nle][dA]HFR[dW]ARFG-OH (SMILES CCCC[C@H](NC(C)=O)C(=O)N[C@H](C)C(=O)N[C@@H](Cc1c[nH]cn1)C(=O)N[C@@H](Cc1ccccc1)C(=O)N[C@@H](CCCNC(=N)N)C(=O)N[C@H](Cc1c[nH]c2ccccc12)C(=O)N[C@@H](C)C(=O)N[C@@H](CCCNC(=N)N)C(=O)N[C@@H](Cc1ccccc1)C(=O)NCC(=O)O) [CTX-1528],1.9,182
Ac-[Nle][dA]P[Phe(4-I)]R[dF]DRFG-OH (SMILES CCCC[C@H](NC(C)=O)C(=O)N[C@H](C)C(=O)N1CCC[C@H]1C(=O)N[C@@H](Cc1ccc(I)cc1)C(=O)N[C@@H](CCCNC(=N)N)C(=O)N[C@H](Cc1ccccc1)C(=O)N[C@@H](CC(=O)O)C(=O)N[C@@H](CCCNC(=N)N)C(=O)N[C@@H](Cc1ccccc1)C(=O)NCC(=O)O) [CTX-1506],,1
Ac-[Nle][dA]HFR[d(αMeW)]DRFG-OH (SMILES CCCC[C@H](NC(C)=O)C(=O)N[C@H](C)C(=O)N[C@@H](Cc1c[nH]cn1)C(=O)N[C@@H](Cc1ccccc1)C(=O)N[C@@H](CCCNC(=N)N)C(=O)N[C@](C)(Cc1c[nH]c2ccccc12)C(=O)N[C@@H](CC(=O)O)C(=O)N[C@@H](CCCNC(=N)N)C(=O)N[C@@H](Cc1ccccc1)C(=O)NCC(=O)O) [CTX-1510],181,23
Ac-[Nle][dA]H[Phe(4-I)]R[d2Nal]DRFG-OH (SMILES CCCC[C@H](NC(C)=O)C(=O)N[C@H](C)C(=O)N[C@@H](Cc1c[nH]cn1)C(=O)N[C@@H](Cc1ccc(I)cc1)C(=O)N[C@@H](CCCNC(=N)N)C(=O)N[C@H](Cc1ccc2ccccc2c1)C(=O)N[C@@H](CC(=O)O)C(=O)N[C@@H](CCCNC(=N)N)C(=O)N[C@@H](Cc1ccccc1)C(=O)NCC(=O)O) [CTX-1502],6.7,184
Ac-[Nle][dA][NMeA]FR[dW]DRFG-OH (SMILES CCCC[C@H](NC(C)=O)C(=O)N[C@H](C)C(=O)N(C)[C@@H](C)C(=O)N[C@@H](Cc1ccccc1)C(=O)N[C@@H](CCCNC(=N)N)C(=O)N[C@H](Cc1c[nH]c2ccccc12)C(=O)N[C@@H](CC(=O)O)C(=O)N[C@@H](CCCNC(=N)N)C(=O)N[C@@H](Cc1ccccc1)C(=O)NCC(=O)O) [CTX-1190],3920,
Ac-[Nle][dA][NMeH]FR[dW]DRFG-OH (SMILES CCCC[C@H](NC(C)=O)C(=O)N[C@H](C)C(=O)N(C)[C@@H](Cc1c[nH]cn1)C(=O)N[C@@H](Cc1ccccc1)C(=O)N[C@@H](CCCNC(=N)N)C(=O)N[C@H](Cc1c[nH]c2ccccc12)C(=O)N[C@@H](CC(=O)O)C(=O)N[C@@H](CCCNC(=N)N)C(=O)N[C@@H](Cc1ccccc1)C(=O)NCC(=O)O) [CTX-1186],200,1880
Ac-[Nle][dA]H[Phe(4-I)]R[dTic]DRFG-OH [CTX-1504],,1
YVXXHFRWDRFG (Nle at 3; D-Abu at 4; D-Trp at 8) [CTX-1135],1,667
